This assay has as its target T1, Recombinant human TLR2 protein Glu21-Leu590, with a C-terminal 10-His tag (human, UniProt O60603 21-590).
T1 construct: Human Toll-like receptor 2, residues Glu21-Leu590; In the functional rows the TLR2 is the endogenous receptor on neutrophils or ATRA-differentiated HL-60 cells, not this soluble construct; also called TLR2-10xHis; Toll-like receptor 2; source: bought: R&D Systems (Cat. # 2616-TR-050); not shown: His10, C-terminal, kept
As to the kind of experiment: ELISA; Competitive ELISA: 0.625 μg TLR2-10xHis in 100 µL PBS-T pre-incubated with 0.78125-50 μg Pam3CSK4 or BSA (control), then added to wells coated with 0.05 µg HP-NAP, room temperature 2 h; detected with anti-6x His tag antibody. The settings on record: both partners purified. Background: In an ELISA, binding on a coated surface is turned into a signal by an enzyme label.

T1 sequence (O60603 21-590): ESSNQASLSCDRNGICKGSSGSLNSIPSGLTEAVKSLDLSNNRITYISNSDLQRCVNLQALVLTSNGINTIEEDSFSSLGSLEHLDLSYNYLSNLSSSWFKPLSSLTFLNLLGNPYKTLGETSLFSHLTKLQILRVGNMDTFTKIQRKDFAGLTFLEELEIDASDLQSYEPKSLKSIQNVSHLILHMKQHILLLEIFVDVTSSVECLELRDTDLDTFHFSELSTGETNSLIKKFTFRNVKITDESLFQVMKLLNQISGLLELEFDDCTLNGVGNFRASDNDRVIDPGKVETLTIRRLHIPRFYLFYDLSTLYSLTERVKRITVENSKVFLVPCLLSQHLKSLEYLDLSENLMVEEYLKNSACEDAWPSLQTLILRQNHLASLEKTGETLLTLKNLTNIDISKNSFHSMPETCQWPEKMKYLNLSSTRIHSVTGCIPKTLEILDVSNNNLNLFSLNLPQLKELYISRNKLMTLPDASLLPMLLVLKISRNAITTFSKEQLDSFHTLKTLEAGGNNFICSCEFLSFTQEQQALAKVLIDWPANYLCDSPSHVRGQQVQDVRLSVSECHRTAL

B1: Helicobacter pylori neutrophil-activating protein (natural protein)
chain: MKTFEILKHLQADAIVLFMKVHNFHWNVKGTDFFNVHKATEEIYEEFADMFDDLAERIVQLGHHPLVTLSEAIKLTRVKEETKTSFHSKDIFKEILEDYKYLEKEFKELSNTAEKEGDKVTVTYADDQLAKLQKSIWMLQAHLA
notes: also called HP-NAP; NAP; source: E. coli BL21(DE3) carrying pET42a-NAP, purified (two gel-filtration steps: Sephacryl S-300, Superdex 200; endotoxin removed); copies: 12
As for B1, the binding result is given as “binds”.
